Measurements from article PMC4303232.

Molecular target: FADD (UniProt Q13158)
Test: anti-flag immunoprecipitation, immunoblot
Conditions: reference: wild type; sites S116

binding against the reference: weaker
Substance: PEA15 (from UniProt Q15121) S116A
